Assay results from article PMC12609799, “Novel Dual-Coenzyme Specificity and Thermostability of Malate Dehydrogenase Identified in the Cyanobacterium Microcystis aeruginosa PCC7806” (International Journal of Molecular Sciences, 2025).

Key:
[1] = substrate: NC(=O)C1=CN([C@@H]2O[C@H](COP(=O)(O)OP(=O)(O)OC[C@H]3O[C@@H](n4cnc5c(N)ncnc54)[C@H](O)[C@@H]3O)[C@@H](O)[C@H]2O)C=CC1; test: purified protein; format: biochemical, Microcystis aeruginosa; conditions: oxaloacetate reduction, 100 mM Tris-HCl pH 8.0, 25 °C, apparent, varied: cofactor
[2] = substrate: NC(=O)C1=CN([C@@H]2O[C@H](COP(=O)(O)OP(=O)(O)OC[C@H]3O[C@@H](n4cnc5c(N)ncnc54)[C@H](OP(=O)(O)O)[C@@H]3O)[C@@H](O)[C@H]2O)C=CC1; test: purified protein; format: biochemical, Microcystis aeruginosa; conditions: oxaloacetate reduction, 100 mM Tris-HCl pH 8.0, 25 °C, apparent, varied: cofactor

B1: MaMDH (Ma7806MDH) (Microcystis aeruginosa PCC 7806SL) (protein)
chain: MVDFYDTLIPCQSPRVSVIGAGNVGRTLAQRIAEKNLADVVLLDIVHGLPQGIALDLMEAQGIELHDSEIIGTNNYEDTAGSDIVVITAGLARKPGMSRDDLMNVNAKIVVEAATKCLKYSPEAIFIVITNPLDVMTYLVWQATGLPPQRVMGMAGVLDSSRLQTFIAMELGVSTADVHAMVLGGHGDLMLPLPRYCTVSGVPITELMDEITINRLVERTRNGGAEIVKLLQTGGAYYAPASSACTMVETILRNQSRLLPAAAYLKGEYGLQDVYLGVPCRLGCRGVESILEVRLTDAERLDLHTSAASVRQNVHLALDSLKVLM
Km [1]: 33.140 ± 0.95 µM
kcat [1]: 31.7 ± 1.43 s⁻¹
kcat/Km [1]: 956000 M⁻¹ s⁻¹
Km [2]: 113.200 ± 3.46 µM
kcat [2]: 8.71 ± 1.45 s⁻¹
kcat/Km [2]: 77000 M⁻¹ s⁻¹
